Source: patent US20140024076A1 (AstraZeneca / MedImmune, published 2014)

Target: RSV-F protein, full-length, human RSV strain A2 (human respiratory syncytial virus, …, UniProt P03420 26-574)
Assay: 25 nM Eu3+-labeled antibody on tetracycline-induced 293-derived cells, 44 h post induction; time-resolved fluorescence, R3-47 nonspecific binding subtracted

B1: motavizumab (antibody, V domains shown)
VH: QVTLRESGPALVKPTQTLTLTCTFSGFSLSTAGMSVGWIRQPPGKALEWLADIWWDDKKHYNPSLKDRLTISKDTSKNQVVLKVTNMDPADTATYYCARDMIFNFYFDVWGQGTTVTVSS
VL: DIQMTQSPSTLSASVGDRVTITCSASSRVGYMHWYQQKPGKAPKLLIYDTSKLASGVPSRFSGSGSGTEFTLTISSLQPDDFATYYCFQGSGYPFTFGGGTKVEIK
fold amount of antibody bound, FGC-WPRE cell line compared to FGC cell line: 6.31 fold
